Literature values as cited in publication PMC7143314.

Biological target: RAF RBD (Homo sapiens) (UniProt P04049)

Kd: 20 nM
Substance: RAS (from UniProt P01116)
